Patent US20140120109A1 (Regeneron, published 2014)

Columns and labels:
[1] = biological target: T1, human TL1A, soluble, CHO-expressed, residues 72-251 of SEQ ID NO:244 with N-terminal His6-tag (human, UniProt O95150 72-251); experiment: SPR 25C, mAb captured; kd set at 1e-6 1/s
T1 construct: also called hTL1A; hTL1A (CHO)
T1 sequence: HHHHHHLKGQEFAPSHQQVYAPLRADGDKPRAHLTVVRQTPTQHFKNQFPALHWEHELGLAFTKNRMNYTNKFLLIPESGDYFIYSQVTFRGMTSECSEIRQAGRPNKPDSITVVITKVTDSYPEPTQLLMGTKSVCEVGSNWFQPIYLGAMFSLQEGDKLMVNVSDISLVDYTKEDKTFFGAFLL
Protocol: (§1) Measurements were conducted on a T100 BIACORE™ instrument. […] Kinetic association (kₐ) and dissociation (kd) rate constants were determined by fitting the data to a 1:1 binding model using BIAevaluation 4.1 curve fitting software (BIAcore Life Sciences). Molar concentrations of TL1A/Fhm used in the data fitting assumed a monomeric state for TL1A in solution. Binding dissociation equilibrium constants (KD) and dissociative half-lives (t_{1/2}) were calculated from the kinetic rate constants as: KD (M)=kd/kₐ; and t_{1/2} (min)=[In2/(60*kd)].

[2] = biological target: T1, human TL1A, soluble, CHO-expressed, …; experiment: SPR 37C, mAb captured; kd set at 1e-6 1/s
Protocol: as §1

t1/2 [1]: ≥ 192 h
Kd [2]: ≤ 13.8 pM
t1/2 [2]: ≥ 192 h
B1: H4H1750P (antibody, human IgG4 S228P, V domains shown)
VH: QVQLVESGGGVVQPGRSLRLSCVASGFTFSNYGMHWVRQAPGKGLEWVAVISYDGNNDLYSDSVKGRFTISRDNAKNALSLQMTSLRAEDTAVYYCARDSTMTPYYYHGIDVWGQGTTVTVSA
VL: DIQMTQSPSSLSASVGDRVTITCRASQDIRNDLGWYQQKPGKAPKRLIYAASSLQSGVPSRFSGSGSGTDFTLTISSLQPEDFATYYCLQHNSYPPTFGQGTKVEIK
